Tests used:
[1] = biological target: T1, beta chain of human C5 protein (human, UniProt P01031 19-673); experiment: immunoblot, SDS-PAGE under reducing condition
T1 construct: Seen as the beta-chain band of C5 on SDS-PAGE under reducing condition; also called C5 beta-chain

[2] = biological target: T2, Fc fusion protein having an MG4 domain (human, UniProt P01031 350-469); experiment: immunoblot of beta-chain domain Fc fusion proteins
T2 construct: Amplified with MG4_F/MG4_R and cloned by SfiI into modified pCEP4; also called hMG4; MG4 domain of the C5 beta chain as Fc fusion protein; not shown: hinge region and CH2-CH3 domain of human IgG1, 3' of the cloning site

[3] = biological target: T3, MG4 domain mutant d332-396 Fc fusion protein (human, UniProt P01031 415-469); experiment: immunoblot after SDS-PAGE
T3 construct: not shown: hinge region and CH2-CH3 domain of human IgG1
Description: (§1) MG4 domain of the beta chain and five mutants from which the MG4 domain is sequentially removed from N-terminus of the MG4 domain were cloned. The primers were designed to add SfiI restriction sites at both the 5′ and 3′ ends (Table 13). The amplified PCR fragments were digested with SfiI and cloned into modified pCEP4 vector containing the hinge region and CH2-CH3 domain of human IgG1 at the 3′ region of the cloning site. These clones were transfected and Fc fusion proteins were purified as described in Example 5. The purified Fc fusion proteins were subjected to SDS-PAGE, and immunoblotting was performed as described above.

[4] = biological target: T4, MG4 domain mutant d332-378 Fc fusion protein (human, UniProt P01031 397-469); experiment: immunoblot after SDS-PAGE
T4 construct: not shown: hinge region and CH2-CH3 domain of human IgG1
Description: as §1

[5] = biological target: T5, MG4 domain mutant d332-348 Fc fusion protein (human, UniProt P01031 367-469); experiment: immunoblot after SDS-PAGE
T5 construct: not shown: hinge region and CH2-CH3 domain of human IgG1
Description: as §1

binding result [1]: binds | binding result [2]: binds | binding result [3]: no binding | binding result [4]: no binding | binding result [5]: no binding
B1: HRA-06-H2-1 (antibody, human IgG2, kappa, V domains shown)
VH: EVQLVESGGGLVQPGGSLRLSCAASGFSFSGRYWIQWVRQAPGKGLEWVASVWPGITGDTNYANWAKGRFTISRDDSKNTLYLQMNSLRAEDTAVYYCAREPVAWGGGLDLWGQGTLVTVSS
VL: DIQMTQSPSSLSASVGDRVTITCQASQSINNQLSWYQQKPGKAPKLLIYYASTLASGVPSRFSGSGSGTDFTLTISSLQPEDFATYYCQGSYYSGGWDYGFGQGTKVEIKR
notes: also called anti-complement C5 antibody HRA-06-H2-1; C5 Antibody (HRA-06-H2-1)

Reference: patent publication US20160068592A1 (SEOUL NATIONAL UNIVERSITY R AND DB FOUNDATION, published 2016)
